Test results taken from patent publication US10030065.

Biological target: purified folded MHC-complex (Example 29)
Experiment: sandwich ELISA, W6/32 coat, HRP rabbit anti-β2m detection

For “W6/32 mouse-anti-HLA-ABC antibody (Dako M0736)”, the OD450 against the negative control β2m (fold) was over 6 fold.
